The source of these data is patent US20040228866A1, “Suppressor genes” (Ludwig Institute for Cancer Research, priority 2000, published 2004).

The subject of test [1] is U2OS and MCF7 cells. Description: Apoptosis by FACS in U2OS and MCF7 cells expressing wild-type p53, with or without cisplatin. It counts as cell-based, human. As to conditions: for effect on cisplatin-induced apoptosis: transfected before cisplatin, FIGS. 7B and 7D. Here is the method: The transfected cells were gated, and the apoptotic cells identified by FACS as described in Example 6.
Before exposure to cisplatin (5 and 3 μg/ml respectively), U2OS and MCF7 cells were transfected with plasmids encoding HPV16 E6, iASPP, or 53BP2. Thirty hours later, cells were harvested and analysed as above.
Fragments from the 5′ ends of ASPP1, ASPP2 and iASPP cDNA were cloned into a mammalian expression vector in an antisense orientation and their ability to inhibit the protein synthesis determined in vitro. The antisense nucleic acid molecules were amplified by PCR on the respective plasmid clones using primers spanning the following nucleotide regions (relative to the initial ATG): −74 to 923; −253 to 839 and −37 to 536 for ASPP1, ASPP2 and iASPP respectively. The amplified segments were purified with the QIAquick PCR purification kit (QIAGEN) and ligated in the pcDNA3.1/V5-His TOPO vector (Invitrogen) according to the manufacturer's instructions.
U2OS and MCF-7 cells were transfected with the various expression plasmids prior to the treatment with cisplatin and analyzed using FACS as described above.
To determine the anti-apoptotic role of iASPP, both U2OS and MCF-7 cells were transfected with antisense iASPP and cells analyzed as described above. […] A small increase in apoptotic cells was consistently detected (FIG. 7D).

Test [2] has as its target T1, p53 (Homo sapiens, UniProt P04637).
T1 construct: expressed in transfected cells
The test is described as follows: Transient luciferase reporter assay of p53 transactivation function in Saos-2 cells. It is filed as cell-based. As to conditions: for effect on ASPP stimulation of p53 transactivation function on the Bax promoter: co-expressed with p53 and ASPP1 or ASPP2. Here is the method: (§1) The amount of luciferase expression was determined as previously described in Samuels-Lev et al. (Mol. Cell 8:781-94, 2001, herein incorporated by reference).
(§2) The amount of transactivation function was determined as described in Example 4.
(§3) To determine the amount of protein expression, Saos-2 cells (5×10^5) were plated 24 hours prior to transfection in 6 cm dishes. […] To determine the amount of gene activation, after transfection, the cells were lysed in Reporter Lysis Buffer 16-24 hours post-wash and assayed using the Luciferase Assay kit (Promega, Wis.). The fold activation of a particular reporter was determined by the activity of the transfected plasmid above the activity of vector alone.
(§4) The expression level of transfected proteins was detected using 40 μg of the respective lysates using the antibodies V5, DX.5410, DO1, 4A4 and p73. […] Results were derived from at least three independent experiments.

The target in test [3] is T1, p53. The test is described as follows: Co-immunoprecipitation with p53 in transfected Saos-2 cells. It is filed as binding. Here is the method:
The cells were lysed in NP40 lysis buffer and 1000 μg of lysate immunoprecipitated with antibodies to iASPP bound to Protein G beads.

The test system of test [4] is p53. Description: Transient luciferase reporter assay of p53 transactivation function in Saos-2 cells. It counts as cell-based. The following applies: expressed without p53, FIG. 8B. How it is done:
as §1, §2, §3, §4
For orientation: In a reporter assay the amount or activity of a reporter protein is the signal.

The subject of test [5] is Saos-2 cells. Description: Apoptosis by flow cytometry (CD20-gated, sub-G1 DNA content) in transfected Saos-2 cells. It counts as cell-based. Here is the method:
Apoptosis was identified by the expression of the co-transfected cell surface marker CD20, as described in Samuels-Lev et al. (Mol. Cell 8:781-94, 2001, herein incorporated by reference).
The number of apoptotic cells was determined using the methods described in Example 6.
Cells (10^6) were plated 24-48 hours prior to transfection in 10 cm plates. Cells were grown in DMEM supplemented with 10% FCS and transfected with 2 μg of a plasmid expressing CD20 as a transfection marker. Increasing amounts of ASPP1 and ASPP2 were transfected (7.5 μg, 15 μg and 25 μg). 36 hours after the transfection, both attached and floating cells were harvested and analysed using flow cytometry as follows. The transfected cells were gated based on the expression of CD20. The percentage of apoptotic cells was measured by the accumulation of cells with a sub-G1 DNA content derived from at least three individual experiments.
The transfected cells were analyzed by flow cytometry as described in Example 6.

Test [6] concerns MCF-7 cells. Description: Cellular resistance to the cytotoxic effect of cisplatin in MCF-7 cells. It is filed as cell-based, human. As to conditions: iASPP-expressing versus non-expressing cells, FIG. 10B. The text has this: Many chemotherapy drugs are DNA-damage agents and induce apoptosis via p53-dependent pathway. […] The cellular resistance to the cytotoxic effect of cisplatin were compared between iASPP-expressing and non-expressing iASPP MCF-7 cells. Expression of iASPP enhanced the cellular resistance by about 2.5 fold (FIG. 10B). Such an increase in cellular resistance to cisplatin is significant with respect to cancer treatment.

Test [7] relates to rat embryo fibroblasts (REFs). Description: Transformation of rat embryo fibroblasts with E7. It is filed as cell-based. The following applies: co-transfected with E7, FIG. 10A.

T1 sequence (P04637 whole entry): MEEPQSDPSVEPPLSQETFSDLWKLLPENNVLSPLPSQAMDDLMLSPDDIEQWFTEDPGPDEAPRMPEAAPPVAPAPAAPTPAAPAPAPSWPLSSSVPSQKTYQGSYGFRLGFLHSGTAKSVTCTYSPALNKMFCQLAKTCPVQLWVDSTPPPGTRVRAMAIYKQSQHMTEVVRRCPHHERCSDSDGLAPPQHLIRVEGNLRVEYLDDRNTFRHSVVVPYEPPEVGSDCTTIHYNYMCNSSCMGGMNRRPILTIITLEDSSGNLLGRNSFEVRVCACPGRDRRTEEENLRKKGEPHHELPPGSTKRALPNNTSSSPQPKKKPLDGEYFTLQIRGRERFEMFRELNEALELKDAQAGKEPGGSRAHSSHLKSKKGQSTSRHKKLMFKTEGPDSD

B1: E6: viral oncoprotein from human papilloma virus that binds p53 and targets it for degradation (protein, UniProt P03126 1-158, looked up)
Protein E6: MHQKRTAMFQDPQERPRKLPQLCTELQTTIHDIILECVYCKQQLLRREVYDFAFRDLCIVYRDGNPYAVCDKCLKFYSKISEYRHYCYSLYGTTLEQQYNKPLCDLLIRCINCQKPLCPEEKQRHLDKKQRFHNIRGRWTGRCMSCCRSSRTRRETQL
On to B1, for which the “percentage of transfected cells that die of apoptosis after cisplatin” value in test [1] (cisplatin 5 and 3 μg/ml (U2OS, MCF7), thirty hours) is listed as “below 15%”. In addition, the “effect on apoptosis induced by ASPP1 or ASPP2” value in test [1] (co-expression) was “inhibited the apoptosis induced by ASPP1 or ASPP2”. The “effect on cisplatin-induced apoptosis” value in test [1] is “reduced the percentage of apoptotic cells to half”.

B2: ASPP2/bBP2: 1005 amino acid polypeptide, amino acids 123-1128 of ASPP2 (protein)
chain: RMDLTLAELQEMASRQQQQIEAQQQLLATKEQRLKFLKQQDQRQQQQVAEQEKLKRLKEIAENQEAKLKKVRALKGHVEQKRLSNGKLVEEIEQMNNLFQQKQRELVLAVSKVEELTRQLEMLKNGRIDSHHDNQSAVAELDRLYKELQLRNKLNQEQNAKLQQQRECLNKRNSEVAVMDKRVNELRDRLWKKKAALQQKENLPVSSDGNLPQQAASAPSRVAAVGPYIQSSTMPRMPSRPELLVKPALPDGSLVIQASEGPMKIQTLPNMRSGAASQTKGSKIHPVGPDWSPSNADLFPSQGSASVPQSTGNALDQVDDGEVPLREKEKKVRPFSMFDAVDQSNAPPSFGTLRKNQSSEDILRDAQVANKNVAKVPPPVPTKPKQINLPYFGQTNQPPSDIKPDGSSQQLSTVVPSMGTKPKPAGQQPRVLLSPSIPSVGQDQTLSPGSKQESPPAAAVRPFTPQPSKDTLLPPFRKPQTVAASSIYSMYTQQQAPGKNFQQAVQSALTKTHTRGPHFSSVYGKPVIAAAQNQQQHPENIYSNSQGKPGSPEPETEPVSSVQENHENERIPRPLSPTKLLPFLSNPYRNQSDADLEALRKKLSNAPRPLKKRSSITEPEGPNGPNIQKLLYQRTTIAAMETISVPSYPSKSASVTASSESPVEIQNPYLHVEPEKEVVSLVPESLSPEDVGNASTENSDMPAPSPGLDYEPEGVPDNSPNLQNNPEEPNPEAPHVLDVYLEEYPPYPPPPYPSGEPEGPGEDSVSMRPPEITGQVSLPPGKRTNLRKTGSERIAHGMRVKFNPLALLLDSSLEGEFDLVQRIIYEVDDPSLPNDEGITALHNAVCAGHTEIVKFLVQFGVNVNAADSDGWTPLHCAASCNNVQVCKFLVESGAAVFAMTYSDMQTAADKCEEMEEGYTQCSQFLYGVQEKMGIMNKGVIYALWDYEPQNDDELPMKEGDCMTIIHREDEDEIEWWWARLNDKEGYVPRNLLGLYPRIKPRQRSLA
On to B2, for which the “stimulation of the transactivation function of p53” value in test [2] (versions of ASPP2 co-expressed with p53, FIG. 3) is “about 2 fold”. Further, the “interaction with p53 by immunoprecipitation and western blot” value in test [3] is on record as “interacted with p53 in vivo”.

B3: Ikb: the inhibitor of p65 Rel A (protein, UniProt P25963 1-317, looked up)
NF-kappa-B inhibitor alpha: MFQAAERPQEWAMEGPRDGLKKERLLDDRHDSGLDSMKDEEYEQMVKELQEIRLEPQEVPRGSEPWKQQLTEDGDSFLHLAIIHEEKALTMEVIRQVKGDLAFLNFQNNLQQTPLHLAVITNQPEIAEALLGAGCDPELRDFRGNTPLHLACEQGCLASVGVLTQSCTTPHLHSILKATNYNGHTCLHLASIHGYLGIVELLVSLGADVNAQEPCNGRTALHLAVDLQNPDLVSLLLKCGADVNRVTYQGYSPYQLTWGRPSTRIQQQLGQLTLENLQMLPESEDEESYDTESEFTEFTEDELPYDDCVFGGQRLTL
As for B3, the “inhibition of the transactivation function of p53 on the Bax promoter” value in test [2] (50 ng co-expressed with p53) is reported as “very little inhibition”. In test [2] (FIG. 8C, Ikb even in the presence of ASPP2), the “transactivation function of p53 on the mdm2 promoter” value is “hardly decreased”. The “effect on ASPP stimulation of p53 transactivation function on the Bax promoter” value (from here on “effect on ASPP stimulation”) in test [2] is recorded as “significantly decreased ASPP2-mediated stimulation”. Also, the “inhibition of Bax promoter reporter activity” value in test [4] is given as “did not show any detectable inhibition”. The “percentage of apoptotic cells, co-expressed with p53 and ASPP2” value in test [5] (Example 11, p53+ASPP2 30%) is on record as 16%. For the same molecule, in test [5] (Example 11, p53 alone […]%), the “percentage of apoptotic cells, co-expressed with p53” value amounted to 11%. Moreover, the “percentage of apoptotic cells, expressed alone” value in test [5] (Example 11, vector alone 4.6%) was determined as 7.2%.

B4: iASPP: Inhibitor of Apoptosis Stimulating Proteins, p65 rel A binding protein of 315 amino acids, SEQ ID NO: 6 (protein)
chain: MWMKDPVARPLSPTRLQPALPPEAQSVPELEEVARVLAEIPRPLKRRGSMEQAPAVALPPTHKKQYQQIISRLFHRHGGPGPGGRSQSCPPSLRDLRPGQGPLLLPHQLPFHRPAPSQSSPPEQPQSMEMRSVLRKAGSPRKARRARLNPLVLLLDAALTGELEVVQQAVKEMNDPSQPNEEGITALHNAICGANYSIVDFLITAGANVNSPDSHGWTPLHCAASCNDTVICMALVQHGAAIFATTLSDGATAFEKCDPYREGYADCATYLADVEQSMGLMNSGAVYALWDYSAEFGDELSFREGESVTVLRRDGPEETDWWWAALHGQEGYVPRNYFGLFPRVKPQRSKV
modifications: homo sapiens
Regarding B4, in test [2], the “effect on ASPP stimulation” value was “decreased or eliminated the ability”. Moreover, the “effect on the apoptotic function of wild type p53” value in test [5] (co-expressed with p53) is listed as “small inhibitory effect”. Moreover, the “effect on the enhancement of p53 apoptotic function by ASPP1 and ASPP2” value in test [5] (co-expressed with p53 and ASPP1 or ASPP2) is on record as “decreased or inhibited the enhanced apoptotic function of p53”. For the same molecule, in test [5] (no p53 co-expressed), the “apoptosis when expressed alone” value is “did not induce apoptosis on its own”. Also, in test [1], the “effect on cisplatin-induced apoptosis” value is reported as “inhibited cisplatin-induced apoptosis to a similar extent as E6”. Further, the “enhancement of cellular resistance to cisplatin” value in test [6] is recorded as “about 2.5 fold”. Besides, in test [7], the “transforming function of E7” value is “enhanced the transforming function of E7 significantly”. Besides, in test [3], the “interaction with p53 by immunoprecipitation and western blot” value is reported as “interacted with p53”.

B5: ASPP2/53BP2: 528 amino acid C-terminal polypeptide, amino acids 600-1128 of ASPP2 (protein)
chain: KPQTVAASSIYSMYTQQQAPGKNFQQAVQSALTKTHTRGPHFSSVYGKPVIAAAQNQQQHPENIYSNSQGKPGSPEPETEPVSSVQENHENERIPRPLSPTKLLPFLSNPYRNQSDADLEALRKKLSNAPRPLKKRSSITEPEGPNGPNIQKLLYQRTTIAAMETISVPSYPSKSASVTASSESPVEIQNPYLHVEPEKEVVSLVPESLSPEDVGNASTENSDMPAPSPGLDYEPEGVPDNSPNLQNNPEEPNPEAPHVLDVYLEEYPPYPPPPYPSGEPEGPGEDSVSMRPPEITGQVSLPPGKRTNLRKTGSERIAHGMRVKFNPLALLLDSSLEGEFDLVQRIIYEVDDPSLPNDEGITALHNAVCAGHTEIVKFLVQFGVNVNAADSDGWTPLHCAASCNNVQVCKFLVESGAAVFAMTYSDMQTAADKCEEMEEGYTQCSQFLYGVQEKMGIMNKGVIYALWDYEPQNDDELPMKEGDCMTIIHREDEDEIEWWWARLNDKEGYVPRNLLGLYPRIKPRQRSLA
modifications: left off: small tags and cut ends
notes: 528 amino acid C-terminal polypeptide, amino acids 600-1128 of ASPP2
On to B5, for which, in test [2] (co-expressed with p53, FIG. 3), the “reduction of the transactivation function of p53” value was “about 50%”. Further, the “effect on ASPP stimulation” value in test [2] was “inhibited ASPP2 stimulation”. In addition, in test [2] (co-expression with p53), the “stimulation of p21waf1 and PG synthetic promoters” value is recorded as “slight stimulation”; the “stimulation of the promoter activity of mdm2 and cyclin G” value is reported as “failed to stimulate”. In test [5] (p53, ASPP2 and ASPP2/53BP2 all co-expressed, FIG. 4C), this molecule yielded an apoptotic cells of 30%. Besides, the “effect on cisplatin-induced apoptosis” value in test [1] is “inhibited cisplatin-induced apoptosis to a similar extent as E6”.
